Measurements published in US20170349647A1.

Key:
[1] = target: recombinant nucleoprotein derived from influenza viruses subtype A H3N2 (Sino Biological, 40208-[change]) (influenza virus type A H3N2)
[2] = target: recombinant nucleoprotein derived from influenza viruses subtype A H1N1 (Sino Biological, 11675-[change]) (influenza virus type A H1N1)
recombinant nucleoprotein derived from influenza viruses subtype A H1N1 (Sino Biological, 11675-[change]) (influenza virus type A H1N1), sequence (P03466 whole entry): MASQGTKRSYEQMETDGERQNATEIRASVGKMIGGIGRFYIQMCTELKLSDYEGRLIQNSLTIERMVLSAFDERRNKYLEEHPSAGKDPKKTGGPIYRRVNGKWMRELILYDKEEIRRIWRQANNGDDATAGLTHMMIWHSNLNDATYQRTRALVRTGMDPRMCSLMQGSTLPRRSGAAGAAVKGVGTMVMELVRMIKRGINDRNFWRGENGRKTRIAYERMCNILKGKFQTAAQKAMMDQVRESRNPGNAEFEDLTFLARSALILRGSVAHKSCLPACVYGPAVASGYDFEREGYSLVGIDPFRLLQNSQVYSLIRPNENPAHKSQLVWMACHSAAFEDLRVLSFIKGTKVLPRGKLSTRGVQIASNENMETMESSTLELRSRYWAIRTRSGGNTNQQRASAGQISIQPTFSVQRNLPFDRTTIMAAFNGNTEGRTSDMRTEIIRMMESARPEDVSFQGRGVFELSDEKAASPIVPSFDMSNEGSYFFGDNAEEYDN

B1: VHH antibody consisting of the amino acid sequence represented by SEQ ID NO: 08 (VHH)
VHH: QVQLVESGGGLVQAGGSLRLSCAASRTIFNPNVMGWYRQAPGKQRELVADISLSGSTNYADSVKGRFTISRDNAKNTMYLQMNSLKPEDTAVYYCNTNAISGAPGRYWGQGTQVTVSS
EC50 (read off the curve) [1]: 0.03 µg/mL
EC50 (read off the curve) [2]: 0.004 µg/mL
